Consider 69 sequences from the domain aggregation screens of Martell et al. (2025).

This data set in a line: soluble fraction after stress (log2 fold change); higher = more stays soluble; pooled small domains, quantitative proteomics. The settings on record: stress: 50 degC. The method in brief: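 Pooled custom libraries of small protein domains were each held under stress at 50°C. The read-out, high-throughput quantitative proteomics, tracked how much of each protein stayed soluble. This is reported as a base-two log fold change used to indicate aggregation propensity. Higher values mean more protein remains in solution.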

For “HMTLPGQDFIRASQLKELIAKYDKQYYEEGVSDISDAEYDRLYEEYLEFENKYPELKDMADAPTKRV”, the “soluble fraction (log2)” value amounted to 0.332. The result for “HMETYTVPEVLGLTPEQAAQLPEVKDIFTLDVKEEGDFSDKPVGTIVRQSPTEGEHRKGDNLVIEVWLSV” reads -0.0593; that for “HMEYDYKVIDFFKDYYSYLNYQEIEPNILDKQLTTLTEEESAKIAGIMKLDYEDFTRGIEIVTGS”, -0.195. The value for “HMGNIKVPSVMGMTLEGAEKVAKDNGAVIEVLEYKESTEEDGTIIEQSPKADMTVATLEKISVVISGK” was -0.105; that for “HMTNKYSSLVIGTVKTIMEEDQYKNLMGPPLKKEIIKQVDKFTNALPIEFDQNDKDFYVKKILINL” was -0.304; that for “HMIVKQPDIRKQELLDIGVRLYFEAGEKGVSIQQVVKQAGVATGLFYYYFSSKDAFLDEALNDYID” was 0.102. For the sequence “HMAIHTSVTEHGEHDLTVRMEMEQVFAIEMAVVSHEQATMLERTFKANAEAIYQKLLGVMTQEYP”, the “soluble fraction (log2)” value was -2.33.

Turning to “HMRKIFPFNPNFITDQRGYFLGMSTSEIDRLHHFRAANKWIQSAQEFQVVTKVSNAWLSEFSPYFNFP”, the “soluble fraction (log2)” value is -3.39. The result for “HMAEAPGSVELLAERLRPWWEIHGGEWGSKTKALRFLFGDQAPVAGSYWRALEAAIAQIESTT” reads -0.16; that for “HMAPSLQISLKQAIITAQQQHPGSKALNADFDGARGTPRYVIETLLPTGELRELTIDAQSGQVMEDHPDR”, 0.119; that for “HMTNADRFIGEEAMVIKKIDDINNDGQVKIAGQVWSAVSEDKSPLEEGTIVKVIAIRGVKLVVEPVS”, 0.0662.

As for “HMGDVPESLVEKAGHSINAKIISAWGMTETGASTMTRPQDDPERAIYSDGVVLPLMDVRVVNDAGLA”, the “soluble fraction (log2)” value is 0.0119.

With “HMGAGDKQAQQASLMQIIALQKEGMALGLVEPKHLYHSFSKMIENAGFKDVQSFAVDPSTQQ”, the “soluble fraction (log2)” value is -0.0552. Consider “HMVDGTPALTDLKKVSKPGRRHYTGSQEIPRVLNGLGISIVSTSKGIMTGAQARRQKVGGELLAFV”, for which the “soluble fraction (log2)” value stood at 0.16. For the sequence “HMNRTKYYDFEGHPAKVVRLTLPVYLNKIGDEVVVYDSQKFAREASPISESQYNRMVAEIFQP”, the “soluble fraction (log2)” value is -0.354.

Consider “HMSNRDNPVVLDFKKVKSTEQLDNILEEYIRENFEGYTVKGRMFSSDEGKFIIALALKDDDGKRALVYFDV”, for which the “soluble fraction (log2)” value was -0.635. In the case of “HMDAPKTGSLVVSKAVNYGSWSGFTFRLHGTSDKGNSVDVTATTGSDGKAYFKDIEIGTYTLEEVN”, the “soluble fraction (log2)” value is -0.387. The result for “HMFHDALVSFAERRVIFMKELVNRLNEARKAYYEGESIMSDKEYDNLYDKLVKMELTTGVVLPNSPTEEVG” reads -1.37; that for “HMDELIKQVANYIINNRATINETAGAFGKSVSSIKKYINDADKLQRIDFELYQKVKEVQKIVELNGQI”, 0.144; that for “HMAVWRIKVNYIPGYGVNIWSSYKNGHFTGKRAMHGETYEVLETKKDQDGNTWYKLDDHQWIEGRYAINAK”, -0.466. The result for “HMLRMTRNRQKLVEVLMESGRPLSADEIREAAGFASTDLVTVYRNLEAFQSAGLLQRIPLENGSQLFELT” reads -0.478; that for “HMKFLYQQVYQDIKDKITSAQYQFGDLLPSEREIGEEYHVDRTTVRKAFSLLVDEGLVEKRAGKGSVVIS”, -0.594; that for “HMQTQVEVLVKYVLEDGTVYKEDKVSADIGAILDSGDLPMLSNDMKFIDDFLFYEVKESDNVIERKVAKLV”, 0.114. With “HMVFLPDEIFRLKVIKAGEGPEQGVGYLDDGTMVVIEGARDRIGDELEVRVTSTLQTNAGKMIFTKFE”, the “soluble fraction (log2)” value was -0.186. The value for “HMLKLEDIKKDAQVKGIVDGQIVRIVTVEPIGDHALTVYYKDHQGQFAERMLFRSDELNLELATA” was -0.00641. The value for “HMNFSRQREIIYEQVRNFPVHPTAEEVYRALKNDNPNLSLGTVYRNLNQLSEAGMLLKIPIADGSDRFDGR” was -0.492; that for “HMSSVRDNGDLELVPGDRIRHDDYGEGRVTAVTGVGSKRIAHAVFDSVGERKLLIKLSPIEKI” was -0.0293; that for “HMEKKTILIPPVITVRALAEISQIPVNRLLQELIKNGVFTSINEKIDFDTAVIIGADLNLDIQLL” was -0.95. The result for “HMTKAGVDAWTRGDYAAAVKEWQAQAAKGDADAIFNLGQAFKLGKGVPQDLIKAEQLFGQAAA” reads 0.154.

With “HMNERTKIPLRKIEIGQAVYVDTLEKVGTVIDIQGKQFKVDLAGLPITVAARNLFYPLPQEAKP”, the “soluble fraction (log2)” value was -0.106. The value for “HMENQGEDMRQQVKALVNADKTNITKLATATGYSRSTISMYLAGNYKGDVEAVERRLEEYMKTQG” was -0.0136; that for “HMPEGTYLEKLAIENNNLQLIGLSREASQLVQLLQDAPQWRKVNLTGVLQADGAASGRDRFTMTAELQ” was 0.0683. The value for “HMPDLSEDEEKIVSLLRDNNDLNVNIIVMRTQLPSATVTSSLFSLELKGVVRMYAGGMYHLM” was -1.7; that for “HMETKVIVPKVTGMNSKSAINYLSARGLKYKAVPADSGKSFHVVDQYPKSGTKVSPHSTVYLYS” was 0.077. The value for “HMVKLQATPSQRKTLDELYVQLKKLEPTAKEDLSLLRRLENSHLVSKQEAQGLISKAIGRVGALAVEQQP” was 0.0652; that for “HMTKRKNTEFRQQQIIEAAAKLIFKYGSEHLTVKRIAAQVGISEAAIYRHFTSKKSILSFLLSHIEE” was -0.423. For “HMLTIQNYFNQVKNIDWEQVPAALSKGHQLVEGASQNNWSAYHSNANIQRVVEAYFQKLNDYLEKN”, the “soluble fraction (log2)” value is -0.191. On to “HMPHSTTDFSVSPDERQIVYSTNLQGRYDLWALDHNQGYPYPLTKKGQMSFFIKHLPGSQMILTGFD”, for which the “soluble fraction (log2)” value was determined as 0.00171. The result for “HMGAGLKIGNDHEYANYLEYKVSVEKYAPGAILGEIKQKGIQFNTTISKTTFYRYITDGVFLTITNADLPV” reads 0.223; that for “HMPQFDRQAFGQRLRLLRDYREMTQQQVANFLNVDRSTYSYYENGKTEPSITVLMRMAELFSVTLDSLLNM”, -2.83. The value for “HMESIEAGTFELDNKTSIDISEDEANLLNKMFEELTETNSKDMYGVMVADEAGFNEILEFAKENL” was 0.167; that for “HMANFGSILRNLRISRDITQSELAAKLGVSRSTVGMYETGAREPDFEAMEAIADTFNVDMDYLVGRSQ” was -0.28; that for “HMALGRTGEVYLPIPAGRAGHGKISITLQGALREVDAVTAGEALPRGTSVRVVDVAGNGVLLVEK” was -0.059. The value for “HMGSDQEAAMARQDRLSTLVDYVVERGSVHVDDIVADLGVSPATVRRDLDALAAQQLIIRTRGGATANHT” was 0.0263; that for “HMADMKIHLRPYAHDTNRWHVDIRLMHPTAATEIRKRLVAPAGLSEAQARAWGERQVPTILGKALGVI” was -0.415. On to “HMVMRHTVEHDAELLAVLRLMYPASSSTKLRKMLTQGRVLVNDDVVHRAKHGVASGDTVDVIVRQRAE”, for which the “soluble fraction (log2)” value was -1.03. The result for “HMQDREKNIAEGRDIIEHEFMRLGISLSRYDLDGLASKLNVKAGDDVLAGVGAGDIRVSQIISQLG” reads -0.00799; that for “HMTKPTLMEVEIKGAIQNPGVYTLKRNSSISKLIKMSGPLLENADTSSISFTHILQDKDVVVIPEIK”, -0.262; that for “HMKEFSFNGGKVIMNYEADRIQIKHDSRPNQEVITLMKRNGFKWSPTNQAWQRQITGNAIYVTKNLLKS”, -1.35.

Regarding “HMEANAYFDAYPDVAAEWARLSGSDEGKATLSAIGVTTPQQFAQYHYTTFGSKENRNAPVGYTP”, the “soluble fraction (log2)” value came out at 0.0756. The result for “HMLQPQMKKFLNYESARNKMRPFGLSTRKEWRLFVDEGNRPADIPGDPYKKYKNKGWISWPHFLGK” reads -1.58. On to “HMFGEKEFYQWIGKTAGEKFSGLPAAVIKSLYKYWREYNLSEEDIMGFIRQTELLPKRTPLDVELFFEK”, for which the “soluble fraction (log2)” value was -0.456. The value for “HMHYELTPDAEKQLSALGLTAELVERILEEANDRRPIPGTNRTVYSLHGYSVEFSNTNHKIVSVRKG” was -0.219; that for “HMSYSYIYNYALKVKMDISSTGGKKPYAYYYYDHSYKLAEEILSLSEETESIELQNKYDELKDFYENP” was -1.32.

On to “HMQRAEQLPAELAAVFRAETEAWGFFERQPPGYQRVAIHWVASAKQEATRLRRLAKLIEESAAGRR”, for which the “soluble fraction (log2)” value was -1.7. The result for “HMDIAATTVKQKIRTLLADEDAARPLSDQKIADALAEDGIDVARRTVAKYREELGIEPSWARKR” reads 0.0398. The result for “HMDGRVQATAEKLRAALDRLARSSVGSPMIERQLTVAALAREARVGRNAIYANHRDILDELIRVRQQRRA” reads 0.144; that for “HMDVNHVIIDHKGNSIQAIIDSIDLDNVYYQSKIKKESEVIDIDKVYFIFNDFDRVYHYDWSYYENL”, -0.138.

For “HMFEKVKLTLTIPSKYSGSTYSALRNRMNKFSKEEWLSNGDLKIEIEVTGGQKTDIYTLINKLTNGEAIIE”, the “soluble fraction (log2)” value was -0.141. The result for “HMPYIVNHIHLKSEDPKITADWFVKAFNFEIVSDVVRHFGDRFIVTKAEGGMTINISGVRDGEEL” reads -0.0655; that for “HMAPDAPDGFVHRWIRAEMLGQEDKSNVHRRMQEGYELVRADEYPDSDLPVAEGRYAGIIGVGGLLLARF”, -0.14; that for “HMAPRKNIRLLRAAQDKAAAEGDHETVDAIRGQIAALIETLPVQYREEYLLQEKGRENGLKLAIENAAK”, 0.423. The value for “HMKLTINIDAAHDGKTIKQLFAEKGYSLELIKKFKYDGAIEVNGERKTVRWVLREGDLLVLEAN” was -1.25; that for “HMKTFSTRLIALREAIGVNQSELARRVGVTPQAVQKWESGANGPRGKRLEKLASELRSTVGYLVSGEGDG” was -0.446; that for “HMTPVFGEEETVLQAAVRGIISDTDQWTMEAEAKSMLNQLGFSDYEEKMAHMSGGQKKRVALVNALLTP” was 0.0128. On to “HMKQENRLKILRKEKGLTQTKLANEIGVSKRTIIAWENDERQIKPDKAQQLADYFGVKEGYLLGYTNN”, for which the “soluble fraction (log2)” value was determined as 0.132. On to “HMSKIRTFRVKTVAVDQAYQVLKDYSPIKISTESNAVIIDLDESKTPAEIAGYLEKNGIKVDNIEVIAESE”, for which the “soluble fraction (log2)” value was found to be 0.179. The result for “HMKNTIPVPHIIGLSEQEARETLERAGLQLNVIKTEPNTKYESGQVTDTNPNEGIKVPKGTIVNVVLADS” reads -0.00961; that for “HMKQPVPDEIYFKRLANATEALGRYPRASERKKFGLNMSKRRYPTLTDFINKAIELGYVEDFR”, -0.373.
